Measured values taken from patent publication US6096512.
Like-named read-outs stand apart in the source and are kept apart here.

Columns and labels:
[1] = target: bovine apomucin (deglycosylated bovine submaxillary mucin) (bovine)
[2] = target: bovine apomucin (deglycosylated bovine submaxillary mucin) (bovine); remark: listed apart in the source
[3] = target: serine containing acceptor peptide …
[4] = target: serine containing acceptor peptide …; remark: listed apart in the source

Row | Total activity (U), cell lysate [1] | specific activity of the purified enzyme preparation [2] | Km [3] | Km [4] | Substance
1 | 16.2 U |  |  |  | cloned full-length (membrane bound) bovine GalNAc-transferase expressed in Sf9 cells (enzyme)
2 |  | 2160 U/mg protein | 3.6 mM | 3.5 mM | soluble, secreted recombinant bovine GalNAc-transferase GalNAcTs (enzyme)
